Test results published in patent publication US20180209962A1, “SCREENING METHOD USING INDUCED NEURONS” (KYOTO UNIVERSITY, priority 2014, published 2018).

Tests used:
[1] = biological target: tau oligomer secreted into the culture supernatant by human tauopathy iNs (FTDP-17 patient, MAPT intron 10+14 C>T) (human) (UniProt P10636); experiment: cell-based or functional assay
[2] = biological target: tau oligomer secreted into the culture supernatant by human tauopathy iNs (FTDP-17 patient, MAPT intron 10+14 C>T) (human) (UniProt P10636); experiment: immunodepletion of human tauopathy iN culture supernatant with antibody-bound beads; tau oligomer measured by ELISA

Sequence of tau oligomer secreted into the culture supernatant by human tauopathy iNs (FTDP-17 patient, MAPT intron 10+14 C>T) (human) (P10636 other isoform, or with tags, fused parts or gaps limits assumed): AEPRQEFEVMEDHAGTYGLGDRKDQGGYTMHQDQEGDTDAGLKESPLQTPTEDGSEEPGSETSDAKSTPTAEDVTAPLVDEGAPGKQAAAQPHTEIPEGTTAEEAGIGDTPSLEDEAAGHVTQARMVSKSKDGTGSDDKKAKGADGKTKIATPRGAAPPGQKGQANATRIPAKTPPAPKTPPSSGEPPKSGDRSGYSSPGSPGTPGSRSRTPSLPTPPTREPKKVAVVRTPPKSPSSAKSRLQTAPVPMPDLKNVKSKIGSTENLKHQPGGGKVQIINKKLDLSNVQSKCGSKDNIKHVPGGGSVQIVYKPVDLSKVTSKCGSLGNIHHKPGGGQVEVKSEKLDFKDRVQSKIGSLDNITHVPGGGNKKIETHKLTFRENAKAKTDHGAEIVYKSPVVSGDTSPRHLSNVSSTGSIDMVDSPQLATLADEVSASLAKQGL
Sequence of tau oligometric complex 1 antibody (TOC1 antibody) (heavy): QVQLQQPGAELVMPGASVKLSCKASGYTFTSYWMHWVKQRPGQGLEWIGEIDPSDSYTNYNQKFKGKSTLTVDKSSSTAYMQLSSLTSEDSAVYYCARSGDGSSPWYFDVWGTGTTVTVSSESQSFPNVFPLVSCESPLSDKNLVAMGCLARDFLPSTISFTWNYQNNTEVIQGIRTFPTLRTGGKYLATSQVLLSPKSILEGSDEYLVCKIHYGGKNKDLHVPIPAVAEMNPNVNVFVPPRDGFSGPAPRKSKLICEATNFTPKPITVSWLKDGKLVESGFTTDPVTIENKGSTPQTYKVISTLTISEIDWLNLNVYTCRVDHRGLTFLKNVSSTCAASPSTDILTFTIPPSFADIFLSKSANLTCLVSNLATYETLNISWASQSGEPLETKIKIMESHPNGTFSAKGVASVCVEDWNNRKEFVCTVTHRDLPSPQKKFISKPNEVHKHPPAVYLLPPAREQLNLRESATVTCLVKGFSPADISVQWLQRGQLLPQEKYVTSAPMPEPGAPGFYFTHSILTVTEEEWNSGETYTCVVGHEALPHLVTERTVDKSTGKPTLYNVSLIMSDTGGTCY
Sequence of tau oligometric complex 1 antibody (TOC1 antibody) (light): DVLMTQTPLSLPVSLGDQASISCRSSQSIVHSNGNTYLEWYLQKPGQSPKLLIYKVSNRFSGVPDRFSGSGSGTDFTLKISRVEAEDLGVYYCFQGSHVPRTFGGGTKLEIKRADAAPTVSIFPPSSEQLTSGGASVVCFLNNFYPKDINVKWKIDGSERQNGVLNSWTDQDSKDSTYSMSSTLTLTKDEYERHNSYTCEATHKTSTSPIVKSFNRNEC

amount of tau oligomer left in the culture supernatant after immunodepletion [2]: 27%
Substance: tau oligometric complex 1 antibody (TOC1 antibody)
survival rate of human normal iNs two days after adding the immunodepleted culture supernatant [1]: 130%
